This experiment addresses N-terminal histidine-tagged full-length mouse eIF4AI (mouse, UniProt P60843 1-406). The experiment in a line: SPR. (In general: Surface plasmon resonance follows binding to a sensor surface in real time, without labels.)

Chain of N-terminal histidine-tagged full-length mouse eIF4AI (P60843 whole entry): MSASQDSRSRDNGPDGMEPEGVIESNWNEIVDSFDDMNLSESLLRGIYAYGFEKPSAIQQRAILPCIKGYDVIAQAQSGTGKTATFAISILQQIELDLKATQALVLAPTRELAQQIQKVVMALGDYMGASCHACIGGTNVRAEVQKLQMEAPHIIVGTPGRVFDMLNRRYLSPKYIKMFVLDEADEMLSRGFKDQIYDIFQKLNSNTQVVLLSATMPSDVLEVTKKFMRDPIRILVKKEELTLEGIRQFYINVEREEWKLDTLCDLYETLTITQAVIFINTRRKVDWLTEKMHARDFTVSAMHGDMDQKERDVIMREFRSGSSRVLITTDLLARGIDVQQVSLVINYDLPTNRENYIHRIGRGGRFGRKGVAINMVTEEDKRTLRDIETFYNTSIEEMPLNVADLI

B1: GST-MA-3M-C fusion protein (tandem MA-3 region of mouse Pdcd4, residues 157-449) (domain or fragment, UniProt Q61823 157-449, looked up)
chain: LPLDETAFEKTLTPIIQEYFEHGDTNEVAEMLRDLNLGEMKSGVPVLAVSLALEGKASHREMTSKLLSDLCGTVMSTNDVEKSFDKLLKDLPELALDTPRAPQLVGQFIARAVGDGILCNTYIDSYKGTVDCVQARAALDKATVLLSMSKGGKRKDSVWGSGGGQQPVNHLVKEIDMLLKEYLLSGDISEAEHCLKELEVPHFHHELVYEAIVMVLESTGESAFKMILDLLKSLWKSSTITIDQMKRGYERIYNEIPDINLDVPHSYSVLERFVEECFQAGIISKQLRDLCPS
On to B1, for which the affinity, expressed as Kd, was 167 nM.

Source of the values: article PMC3089569 (The Journal of Biological Chemistry, 2011).
